Laboratory results from US20250051437A1 (University of California, published 2025).
One block for each binder: values may come before it.

Tests used:
[1] = target: T1, human cadherin-17 (CDH17), endogenously expressed on human cancer cell lines (LS513, SNU-C1, PaTu8988s, … (human, UniProt Q12864 23-832)); test: KinExA, cell-based, SNUC1 cells
T1 construct: also called LS513 (Colon, CDH17+); HPAF2

[2] = target: T2, recombinant CDH17 extracellular domain (ECD) with 6x His tag (human, UniProt Q12864 23-787); test: ELISA on recombinant CDH17 ECD-6xHis
T2 construct: also called Recombinant CDH17 ECD-6xhis tag

[3] = target: T1, human cadherin-17 (CDH17), endogenously …; test: flow cytometry (iQue) on LS513 cells, 1 µg Ab
[4] = target: T1, human cadherin-17 (CDH17), endogenously …; test: flow cytometry (iQue) on SNUC1 cells, 1 µg Ab
[5] = target: T3, human CDH17-mGFP fusion protein overexpressed on HEK293T cells (clone G11) (human, UniProt Q12864 23-832); test: KinExA, cell-based, HEK293T CDH17mGFP clone G11
T3 construct: also called HEK293T CDH17mGFP Clone G11; HEK293T Human CDH17mGFP G11; not shown: mGFP fluorescent protein fused to CDH17
Procedure: (§1) The cell-based antibody affinity (KD) of the anti-CDH17 antibodies was measured by KinExA 4000 (Sapidyne Instrument, Boise, Idaho). Briefly, HEK293T overexpressing CDH17-fluorescent protein fusion (i.e., human CDH17-mGFP, monkey CDH17-mGFP, mouse CDH17-mGFP or rat CDH17-mGFP) were detached with Versene and equilibrated with either 50 pM, 200 pM, 20 nM, or 50 nM antibody in 2% FBS/DMEM at 4° C. overnight. The cell concentration started at 5×10⁶ cells/mL or 1×10⁷ cells/mL and 2-fold serial dilutions were performed up to 10 points. The next day, the cells were centrifuged at 1500 rpm for 10 min and the supernatants were saved. […] In contrast, while the humanized anti-CDH17 antibody, 07-0653-h43, fails to bind mouse CDH17 protein, it binds rat CDH17 protein equally well as to human and monkey CDH17 protein such that its Kp is less than about 1 nM for human, monkey and rat CDH17 proteins with overlapping 95% confidence interval values.

[6] = target: T1, human cadherin-17 (CDH17), endogenously …; test: flow cytometry (iQue) on LS513 cells, 0.2 µg Ab
[7] = target: T1, human cadherin-17 (CDH17), endogenously …; test: flow cytometry (iQue) on SNUC1 cells, 0.2 µg Ab
[8] = target: T1, human cadherin-17 (CDH17), endogenously …; test: flow cytometry on LS513 cells (CDH17+), 20 µg/ml
[9] = target: T1, human cadherin-17 (CDH17), endogenously …; test: flow cytometry (iQue) on PATU8988S cells, 1 µg Ab
[10] = target: T1, human cadherin-17 (CDH17), endogenously …; test: flow cytometry (iQue) on PATU8988S cells, 0.2 µg Ab
[11] = target: T3, human CDH17-mGFP fusion protein …; test: flow cytometry on HEK293T human CDH17mGFP G11, 20 µg/ml
[12] = target: T4, rat CDH17 fused to moxGFP, overexpressed on HEK293T cells (rat, UniProt P55281 22-827); test: KinExA, cell-based, HEK293T rat CDH17mGFP mass population
T4 construct: whole, on cells; also called HEK293T Rat CDH17mGFP mass pop; rat CDH17-moxGFP
T4 sequence (P55281 22-827): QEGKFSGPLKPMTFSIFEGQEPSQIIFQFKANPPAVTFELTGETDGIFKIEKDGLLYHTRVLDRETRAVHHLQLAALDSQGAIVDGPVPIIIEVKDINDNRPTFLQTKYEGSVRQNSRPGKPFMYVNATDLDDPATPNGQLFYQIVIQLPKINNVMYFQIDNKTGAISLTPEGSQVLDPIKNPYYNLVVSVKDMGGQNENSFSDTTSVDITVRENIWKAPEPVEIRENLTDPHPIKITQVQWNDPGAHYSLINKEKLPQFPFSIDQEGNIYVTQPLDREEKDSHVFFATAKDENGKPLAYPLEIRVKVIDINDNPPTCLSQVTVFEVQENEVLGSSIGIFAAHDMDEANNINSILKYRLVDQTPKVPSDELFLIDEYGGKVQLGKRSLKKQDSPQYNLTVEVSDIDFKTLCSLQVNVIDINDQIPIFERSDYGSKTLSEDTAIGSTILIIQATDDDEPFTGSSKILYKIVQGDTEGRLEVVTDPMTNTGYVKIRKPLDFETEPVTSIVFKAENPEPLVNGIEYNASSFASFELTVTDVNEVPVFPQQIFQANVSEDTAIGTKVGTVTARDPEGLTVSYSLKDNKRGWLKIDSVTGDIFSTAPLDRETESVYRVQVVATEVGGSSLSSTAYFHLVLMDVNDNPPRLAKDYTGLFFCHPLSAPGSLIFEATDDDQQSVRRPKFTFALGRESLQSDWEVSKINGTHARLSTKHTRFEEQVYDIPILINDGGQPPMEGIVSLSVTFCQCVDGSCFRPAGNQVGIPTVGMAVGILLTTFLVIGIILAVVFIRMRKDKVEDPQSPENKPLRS
Procedure: as §1

[13] = target: T3, human CDH17-mGFP fusion protein …; test: KinExA, cell-based, HEK293T overexpressing human CDH17-mGFP (FIG. 16)
Procedure: as §1

[14] = target: T4, rat CDH17 fused to moxGFP, …; test: KinExA, cell-based, HEK293T overexpressing rat CDH17 fusion (FIG. 16)
Procedure: as §1

[15] = target: T4, rat CDH17 fused to moxGFP, …; test: flow cytometry on HEK293T rat CDH17mGFP mass population, 20 µg/ml
[16] = target: T3, human CDH17-mGFP fusion protein …; test: KinExA, cell-based, HEK293T human CDH17mGFP G11 (same value as r12)
Procedure: as §1

[17] = target: T5, mouse CDH17-mGFP fusion protein overexpressed on HEK293T cells (mouse, UniProt Q9R100 26-827); test: flow cytometry on HEK293T mouse CDH17mGFP mass population, 20 µg/ml
T5 construct: also called HEK293T Mouse CDH17mGFP mass; not shown: mGFP fluorescent protein
T5 sequence (Q9R100 26-827): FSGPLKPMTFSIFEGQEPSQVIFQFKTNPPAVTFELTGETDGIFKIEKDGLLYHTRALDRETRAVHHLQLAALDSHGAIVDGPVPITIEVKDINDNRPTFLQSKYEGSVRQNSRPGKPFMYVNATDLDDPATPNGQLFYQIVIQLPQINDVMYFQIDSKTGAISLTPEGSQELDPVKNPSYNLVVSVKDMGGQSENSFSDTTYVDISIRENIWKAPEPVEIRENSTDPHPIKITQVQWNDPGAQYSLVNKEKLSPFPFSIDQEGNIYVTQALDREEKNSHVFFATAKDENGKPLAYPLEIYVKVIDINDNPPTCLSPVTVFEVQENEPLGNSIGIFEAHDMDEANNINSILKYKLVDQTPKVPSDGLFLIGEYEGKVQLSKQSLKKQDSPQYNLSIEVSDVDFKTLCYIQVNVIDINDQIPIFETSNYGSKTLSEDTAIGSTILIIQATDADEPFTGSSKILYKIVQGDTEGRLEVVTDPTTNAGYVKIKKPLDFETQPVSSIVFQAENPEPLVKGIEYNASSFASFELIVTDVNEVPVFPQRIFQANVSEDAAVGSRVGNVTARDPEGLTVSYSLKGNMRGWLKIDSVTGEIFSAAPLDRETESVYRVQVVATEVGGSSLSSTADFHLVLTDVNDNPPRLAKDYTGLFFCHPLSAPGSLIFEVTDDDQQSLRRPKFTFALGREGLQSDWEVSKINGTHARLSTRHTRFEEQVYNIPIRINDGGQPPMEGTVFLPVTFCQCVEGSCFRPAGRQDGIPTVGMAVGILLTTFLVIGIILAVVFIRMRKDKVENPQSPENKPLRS

[18] = target: T3, human CDH17-mGFP fusion protein …; test: flow cytometry (iQue) on HEK293T CDH17 mGFP clone G11 (human), 1 µg Ab
[19] = target: T3, human CDH17-mGFP fusion protein …; test: flow cytometry (iQue) on HEK293T CDH17 mGFP clone G11 (human), 0.2 µg Ab
[20] = target: T5, mouse CDH17-mGFP fusion protein …; test: flow cytometry (BD C6) on HEK293T Mouse CDH17 mGFP cells
Procedure: (§2) To determine relative antigen binding strengths of the humanized antibodies, FACS assays were carried out as essentially described in Example 1. […] Using a BD Biosciences Accuri™ C6 Flow Cytometer (San Jose, CA), antibody binding based on Alexa Fluor® 647 fluorescence was measured in the FL4-H channel and fusion protein overexpression based on GFP fluorescence was measured in the FL1-H channel.

[21] = target: T4, rat CDH17 fused to moxGFP, …; test: flow cytometry (BD C6) on HEK293T Rat CDH17 moxGFP cells
Procedure: as §2

- Kd [1]: 206 pM
- EC50 [2]: 1130 pM
- Antibody Binding Activity by Flow iQue [3]: 1.83e+06
- Antibody Binding Activity by Flow iQue [4]: 61400
- Kd [5]: 736 pM
- Antibody Binding Activity by Flow iQue [6]: 1.79e+06
- Antibody Binding Activity by Flow iQue [7]: 77200
- Antibody Binding Activity by Flow Cytometry [8]: 24300
- Antibody Binding Activity by Flow iQue [9]: 52200
- Antibody Binding Activity by Flow iQue [10]: 48100
- Cross Reactivity by Flow [11]: 51800
- Kd [12]: 535 pM
- Kd [13]: < 1000 pM
- Kd [14]: < 1000 pM
- Cross Reactivity by Flow [15]: 71800
- Kd [16]: 736 pM
- Cross Reactivity by Flow [17]: 2460
- Antibody Binding Activity by Flow iQue [18]: 191000
- Antibody Binding Activity by Flow iQue [19]: 51800
B1: humanized anti-CDH17 antibody 07-0653-h43 (antibody, human IgG1, V domains shown)
VH: QVQLVQSGAEVKKPGASVKVSCKASGYTFTDYYMNWVRQAPGQGLEWMGVIYPYSGGIGYAQKFQGRVTMTVDKSTSTAYMELSSLRSEDTAVYYCARGRGDYFGLFDFWGQGTTVTVSS
VL: DIQLTQSPSSLSASVGDRVTITCRATSSLSYIHWYQQKPGKAPKPLIYEISKLASGVPSRFSGSGSGTDYTLTISSLQPEDFATYYCQQWNYPFTFGQGTKLEIK
notes: also called CDH17-653-h43

- Kd [1]: 532 pM
- EC50 [2]: 730 pM
- Antibody Binding Activity by Flow iQue [3]: 2.66e+06
- Antibody Binding Activity by Flow iQue [4]: 74900
- Kd [5]: 817 pM
- Antibody Binding Activity by Flow iQue [6]: 2.86e+06
- Antibody Binding Activity by Flow iQue [7]: 120000
- Antibody Binding Activity by Flow Cytometry [8]: 47200
- Antibody Binding Activity by Flow iQue [9]: 95600
- Antibody Binding Activity by Flow iQue [10]: 21400
- Cross Reactivity by Flow [11]: 50500
- binding result [20]: no binding (tested: 1 µg)
- binding result [21]: no binding (tested: 1 µg)
- Kd [13]: < 1000 pM
- Cross Reactivity by Flow [15]: 2200
- Kd [16]: 817 pM
- Cross Reactivity by Flow [17]: 2510
- Antibody Binding Activity by Flow iQue [18]: 181000
- Antibody Binding Activity by Flow iQue [19]: 50500
B2: humanized anti-CDH17 antibody 07-0646-h7 (antibody, human IgG1, V domains shown)
VH: QVQLVQSGAEVKKPGASVKMSCKASGYTFTSYNMHWVRQAPGQGLEWIGAIYPGNGDTSYAQKFQGRATLTVDTSTSTAYMELSSLRSEDTAVYYCARGRGRYFEYWGQGTTLTVSS
VL: DIQLTQSPSSLSASVGDRVTMTCRASSSVSSSYLHWYQQKPGKAPKLLIYSTSNLASGVPSRFSGSGSGTDYTLTISSVQPEDFATYYCQQYDSSPSTFGQGTKLEIK
notes: C-terminal lysine kept in the humanized antibodies; also called CDH17-646-h7; 07-646-h7
